Laboratory results from the supplement of paper PMC10724198.
± gives the standard deviation of the averaged measurements.

Test system: Saccharomyces cerevisiae
Assay: protein stability index of tFT-peptide fusion (C-terminal peptide) (PSI (0-1 scale)); higher = more stable (slower turnover)
Conditions: genetic background: wild type; temperature: 30 C
Protocol: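 Multiplexed protein stability (MPS) profiling in S. cerevisiae. Random 12-aa peptides (tFT-X12 library) are fused to the C-terminus of a sfGFP-mCherry tandem fluorescent timer, after mCherry and a GGGS linker. Cells are FACS-sorted into 8 mCherry/sfGFP bins and deep-sequenced. The protein stability index (PSI) is the read-weighted bin average, scaled from 0 (unstable) to 1 (stable). Only peptides with >10 reads are reported; cells were grown at 30 °C in SC-His with glucose.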
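Further: PSI is a weighted mean of sequencing reads over stability bins, variants kept only with over 10 reads, mCherry proximal and sfGFP distal, peptide attached via GGGS linker.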

| Sequence | protein stability index |
| --- | --- |
| ETKFLVDRKTDI | 0.67 ± 0.012 |
| ETQEAKGGMTRQ | 0.667 ± 0.0091 |
| ETSERIEDKDGI | 0.698 ± 0.051 |
| EVFGAGRNDPGS | 0.689 ± 0.018 |
| EVGLSVLLPGGG | 0.675 ± 0.022 |
| EVIRGNEGGKER | 0.708 ± 0.018 |
| EVPLGLIRLPSV | 0.695 ± 0.06 |
| EVTEVCTIKVHV | 0.577 ± 0.0097 |
| EVTVSGEEQRAG | 0.6881 ± 0.0044 |
| EVVGILSSVNIA | 0.647 ± 0.03 |
| EVWMGIRSLSVV | 0.634 ± 0.096 |
| EWCAVYDQGNRF | 0.818 ± 0.11 |
| EWGWGRIVNGRE | 0.6869 ± 0.0032 |
| EWNKMTKEKNVI | 0.686 ± 0.017 |
| EWNWRSVYGFGE | 0.748 ± 0.027 |
| EYTRGIRKTRRA | 0.608 ± 0.051 |
| FACLGPLRRRLG | 0.682 ± 0.012 |
| FAECVCVVCPLV | 0.6319 ± 0.0053 |
| FAFLPYKGISSS | 0.682 ± 0.05 |
| FALERLWFMSVG | 0.67 ± 0.031 |
| FALPPPPHLNPP | 0.6248 ± 0.0021 |
| FAPFVPGPSIKY | 0.705 ± 0.074 |
| FCCTPAPVPPST | 0.689 ± 0.016 |
| FCEASSSSRISA | 0.744 ± 0.088 |
| FCFFLLGLFCNL | 0.6 ± 0.062 |
| FCFLSALTCLCA | 0.589 ± 0.021 |

| Sequence | protein stability index |
| --- | --- |
| FCGFLFRLSSVL | 0.626 ± 0.025 |
| FCGLWGVGGVAE | 0.704 ± 0.025 |
| FCLAPMLLPGSF | 0.6785 ± 0.0064 |
| FCPSLFLNPHSC | 0.6739 ± 0.00084 |
| FCSDRPWGPCRR | 0.579 ± 0.08 |
| FCSSSSFMCFVQ | 0.629 ± 0.0082 |
| FDAWTHAGMYNW | 0.757 ± 0.058 |
| FDPSFLSVCRSK | 0.72 ± 0.021 |
| FDRQQDLTGMEM | 0.769 ± 0.078 |
| FERVLVFENRKY | 0.728 ± 0.051 |
| FESYLRLGLGGR | 0.667 ± 0.09 |
| FEVSGYRNGRAL | 0.694 ± 0.0074 |
| FFDSPHCRYACV | 0.744 ± 0.009 |
| FFFYFPSLNSFV | 0.696 ± 0.073 |
| FFPLRLLPLVPR | 0.645 ± 0.0063 |
| FFPPPPPATPPA | 0.663 ± 0.072 |
| FFSFTTPHLSFA | 0.688 ± 0.054 |
| FFSISPLLPLPF | 0.714 ± 0.2 |
| FFSLVHVLFYGF | 0.54037 ± 0.00016 |
| FFTFTMSIPRWL | 0.617 ± 0.055 |
| FFVCCGTRLIGL | 0.716 ± 0.04 |
| FFVRVVGDLRWE | 0.583 ± 0.019 |
| FFWGRFCLGLWS | 0.568 ± 0.067 |
| FFWGVFFLGLGW | 0.566 ± 0.071 |
| FGCLFFSPLSIH | 0.745 ± 0.043 |
| FGCSRRERKGRG | 0.826 ± 0.016 |

| Sequence | protein stability index |
| --- | --- |
| FGDRGLGIIYFK | 0.7277 ± 0.0023 |
| FGFYTYFRPGLG | 0.698 ± 0.017 |
| FGGGGRGGLLWC | 0.764 ± 0.06 |
| FGGGSWSMRWSW | 0.639 ± 0.024 |
| FGGGWGGGVVLV | 0.691 ± 0.0086 |
| FGGNISIPRSCD | 0.7233 ± 0.004 |
| FGLWSSCGWWWT | 0.64 ± 0.041 |
| FGNFCCRWSLGP | 0.66 ± 0.12 |
| FGPAQGYCLVGA | 0.544 ± 0.025 |
| FGRDTDIYLASL | 0.691 ± 0.037 |
| FGSLCPRAHSLV | 0.71 ± 0.011 |
| FGSLMFCLLPLH | 0.6527 ± 0.0026 |
| FGSRYLGVVSGC | 0.656 ± 0.037 |
| FGVGWGDGFFGV | 0.716 ± 0.059 |
| FHGSIVQLTFRA | 0.603 ± 0.047 |
| FHVFTRTVGSVL | 0.643 ± 0.075 |
| FIHVPAYGNVCV | 0.611 ± 0.058 |
| FISPLNFPARPS | 0.7181 ± 0.0015 |
| FIWRFYSLPLGC | 0.623 ± 0.069 |
| FLASPHPPGLSP | 0.693 ± 0.033 |
| FLCILTNGCCYQ | 0.765 ± 0.052 |
| FLFASSGFLGRF | 0.67 ± 0.036 |
| FLFGLGEIDGVR | 0.84 ± 0.034 |
| FLFPTLSPITGC | 0.612 ± 0.05 |
| FLLNPPSLPCYY | 0.727 ± 0.034 |
| FLLPAGLWSSCC | 0.66 ± 0.043 |

| Sequence | protein stability index |
| --- | --- |
| FLLSFPCAHFLL | 0.598 ± 0.056 |
| FLLSILPFISFC | 0.527 ± 0.1 |
| FLLVLVPFCALF | 0.547 ± 0.11 |
| FLNLPLSAFVLL | 0.583 ± 0.062 |
| FLPHSPSLPQLP | 0.67 ± 0.013 |
| FLPPPLAAPFLF | 0.669 ± 0.059 |
| FLQAKSQGEHFR | 0.694 ± 0.012 |
| FLRGSSKSISAR | 0.677 ± 0.061 |
| FLSAGLSILAAP | 0.683 ± 0.043 |
| FLSFECRFPFQW | 0.795 ± 0.069 |
| FLSFRLCTAAPV | 0.559 ± 0.031 |
| FLSLGVIARYFL | 0.6325 ± 0.0042 |
| FLSPPSPWPSFP | 0.688 ± 0.059 |
| FLSSPPPPLRVP | 0.694 ± 0.054 |
| FLTPPIPLFSRL | 0.783 ± 0.058 |
| FLTPPSLSLPPP | 0.68 ± 0.0084 |
| FMDLVRSVPTGC | 0.706 ± 0.046 |
| FMFFMGLFVGGW | 0.5401 ± 0.0026 |
| FMSRDPKDDTET | 0.685 ± 0.076 |
| FMYSGIVAIPRG | 0.661 ± 0.025 |
| FNCIFHMLRFLR | 0.656 ± 0.074 |
| FPCIPAAPPIFL | 0.71 ± 0.015 |
| FPFFSSIPPRVV | 0.574 ± 0.069 |
| FPFLPPRSVSPP | 0.696 ± 0.12 |
| FPGGGARAGVGV | 0.724 ± 0.025 |
| FPGVRNGSRFPP | 0.637 ± 0.0067 |

| Sequence | protein stability index |
| --- | --- |
| FPLLAPAVSPHT | 0.662 ± 0.071 |
| FPPFPPLVPSPP | 0.742 ± 0.0049 |
| FPPIDLPPPSPS | 0.687 ± 0.027 |
| FPPLFPLSTFLL | 0.56 ± 0.04 |
| FPPLPPPPPPLN | 0.743 ± 0.065 |
| FPPPPFFFIPLP | 0.724 ± 0.048 |
| FPPRPPPSPSAH | 0.675 ± 0.027 |
| FPPTGPPYFPPT | 0.615 ± 0.062 |
| FPPYHTSSGFDA | 0.733 ± 0.066 |
| FPSLPSPSPSSH | 0.684 ± 0.031 |
| FPTFSPRPHPLS | 0.72 ± 0.0098 |
| FPTSPPLIALLD | 0.6692 ± 0.0029 |
| FPVSLSSVRMFV | 0.6254 ± 0.0032 |
| FPWPDLPSLLPQ | 0.8 ± 0.14 |
| FQMLPLGHQFPQ | 0.736 ± 0.0087 |
| FRAAGFLAGRYR | 0.738 ± 0.039 |
| FRDEGYCFADLV | 0.71 ± 0.094 |
| FRFLFSPSRPPF | 0.633 ± 0.05 |
| FRFTSSPVFSWL | 0.708 ± 0.014 |
| FRLGIKFYTLAV | 0.514 ± 0.01 |
| FRLGTMYDILPL | 0.69 ± 0.023 |
| FRLPPRPPLTIP | 0.6726 ± 0.0062 |
| FRLQSLFPYVVK | 0.604 ± 0.047 |
| FRSHGHLSQNSY | 0.679 ± 0.044 |
| FSASLLWFKEFW | 0.685 ± 0.024 |
| FSASLPLSPSPA | 0.6784 ± 0.002 |

| Sequence | protein stability index |
| --- | --- |
| FSGGGRGLVGEV | 0.7 ± 0.039 |
| FSGLFAFGRVVV | 0.687 ± 0.056 |
| FSGLSPPRPEFV | 0.708 ± 0.0089 |
| FSIRALGSLGVF | 0.693 ± 0.027 |
| FSLLPFFRHIFL | 0.637 ± 0.025 |
| FSLPRHFRLYRR | 0.713 ± 0.036 |
| FSLPSLLPDPPS | 0.579 ± 0.011 |
| FSPHTPPRRLPL | 0.721 ± 0.066 |
| FSPLTFLLSFPL | 0.679 ± 0.019 |
| FSPSPPPPPFPL | 0.659 ± 0.024 |
| FSSLLLMEVFLP | 0.686 ± 0.011 |
| FSVGGLVDGRLW | 0.79 ± 0.026 |
| FSVPPLPLPPRL | 0.757 ± 0.095 |
| FSVSSSLSSFRA | 0.717 ± 0.03 |
| FTSGNSWLAVFL | 0.731 ± 0.027 |
| FVFSGLSGDFRG | 0.649 ± 0.054 |
| FVFSIPPPPRPL | 0.59 ± 0.15 |
| FVLARLTYSILI | 0.482 ± 0.047 |
| FVLLGVRGGAGW | 0.698 ± 0.021 |
| FVRWCFGRRVLG | 0.619 ± 0.0027 |
| FVVGGGALGCYA | 0.661 ± 0.019 |
| FVVSSLYSYSYR | 0.56 ± 0.015 |
| FVWAGVGCWSEA | 0.723 ± 0.023 |
| FVWSGVGGSGVG | 0.679 ± 0.028 |
| FWERWDLFCGLC | 0.702 ± 0.1 |
